Reference: publication PMC7351598
Read-outs that look alike come from different tables or passages of the source.

Assays:
Assay in all cases: MST
[1] = target: 6xHis-MBP-deadSpyCas9 (Streptococcus pyogenes) (UniProt Q99ZW2)
[2] = target: 6xHis-MBP-SpyCas9(H840A) (Streptococcus pyogenes) (UniProt Q99ZW2)
[3] = target: 6xHis-MBP-SpyCas9(D10A) (Streptococcus pyogenes) (UniProt Q99ZW2)
[4] = target: 6xHis-MBP-SpyCas9 (Streptococcus pyogenes) (UniProt Q99ZW2)
[5] = target: Cas9-gRNA prebound to AcrIIA2b.3 (Streptococcus pyogenes | not stated) (UniProt Q99ZW2)
[6] = target: 6xHis-MBP-SpyCas9 (Streptococcus pyogenes) (UniProt Q99ZW2); remark: listed apart in the source

AcrIIA1 (natural protein) showed a Kd [1] of 905 nM, a Kd [2] of 2000 nM and a Kd [3] of 38 nM. The Kd [4] was 23 nM, the Kd [5] was 24 nM and the Kd [6] was 31 nM.

AcrIIA2b.3 (natural protein) gave a Kd [4] of 20 nM.
